# Measured values as given in PMC12737151, “Systematic Development and Characterization of Enzyme-Free, Borax-Crosslinked Microneedles for Glucose-Responsive Insulin Delivery and In Vivo Glycemic Mitigation” (Pharmaceutics, 2025).
# Legend:
# [1] = system: STZ-diabetic mice; test: Baseline efficacy 0–12 h: plasma glucose and plasma insulin; type: in vivo, C57BL/6J mice; settings: basal monitoring, mean ± SD, n = 8
# [2] = system: STZ-diabetic mice; set-up: species or system C57BL/6J mice; settings: mouse, in vivo; SD
# [3] = mouse, in vivo; SD
# [4] = set-up: species or system C57BL/6J mice; settings: mouse, in vivo; SD
# Description: Pharmacokinetics. Serial blood samples were collected following sI-MN application or SC insulin dosing. Plasma insulin concentrations were quantified by ELISA (4-PL; appropriate plasma dilution; internal QCs and spike-recovery within 80–120%). Noncompartmental analysis (NCA) yielded Cmax, tmax, and AUC over the reported interval, and terminal half-life (t1/2). […] AUCs were calculated by the linear-up/linear-down trapezoidal rule.
# patches (related to Section 2.2.3).
# Mechanical Robustness — Single-Needle Fracture
# compression at constant speed. Fracture point was identified from force–
# displacement traces. Per-array mean ± SD and overall CV were computed.
# ICC(1,1) (related to Section 2.2.4).
# ELISA Validation — Patch Extract Matrices
# ELISA sample diluent to fall within the validated range. For in-vitro release,
# corner wells avoided to minimize edge effects. Carryover was checked by
# placing an LLOQ well immediately after the ULOQ well. Matrix effect and
# 120% recovery and CV ≤15% (≤20% at LLOQ). Content (IU per patch) was
# human insulin (≈28.8 IU·mg⁻¹). All ELISA-derived masses were converted
# accordingly before IU normalizatio. Uniformity was summarized as mean ±
# ELISA Validation — Mouse Plasma (PK)
# inverted, and kept on wet ice.
# specified visual criterion) were excluded. Samples were diluted 1:5–1:20 in kit
# Selectivity against endogenous
# mouse insulin was ensured per manufacturer documentation (cross-reactivity
# <0.1%) and confirmed by blank plasma < LLOQ. Stability was verified for
# 14 days (≥90%). PK outputs per animal included observed Cmax, Tmax, AUC₀–
# regression), and t½ = ln2/λz.
# ICP–MS Validation — Boron Leaching
# Ventures (Christiansburg, VA, USA). External calibration used 0–100 µg·L⁻¹
# standards (matrix-matched), with R² ≥ 0.99 required. A rinse of 2% HNO₃ for
# daily for five consecutive days.
# dose and prior to glycemic assessments as applicable. Fasting plasma glucose
# were excluded per pre-specified rules. All animal procedures complied with
# and conformed to ARRIVE guidelines.
# [5] = system: STZ-diabetic mice; test: Intraperitoneal glucose-tolerance test (IPGTT); type: in vivo, C57BL/6J mice; settings: 30 min after 1.5 g·kg^−1 glucose i.p., 4 h post-treatment, mean ± SD, n = 8
substance,measurement,setting,value
recombinant human insulin [SC insulin],Plasma glucose (PGL),"[1]; 0 h, dose-matched SC vs patch (nominal 0.05–0.20 IU)",344 ± 16 mg/dL
same,Plasma glucose (PGL),"[1]; 12 h, dose-matched",220 ± 30 mg/dL
same,IVGTT plasma insulin,[2],5.4 ± 0.4 ng/mL
same,AST,[3],48.2 ± 6.7 U·L⁻¹
same,Creatinine,[3],39.4 ± 2.5 µmol/L
same,AUC0–12h,[4],192 ± 11 ng·h/mL
same,Tmax,[4],1.0 ± 0.1 h
same,t½ (terminal half-life),[4],2.64 ± 0.12 h
same,IPGTT peak glycemia (maximal group mean at 30 min),[5],272 ± 17 mg/dL
